Experimental data taken from publication PMC10880305.

Assays:
[1] = molecular target: T1, Halo-KDELR-V5-VN (human) (UniProt P24390)
T1 sequence: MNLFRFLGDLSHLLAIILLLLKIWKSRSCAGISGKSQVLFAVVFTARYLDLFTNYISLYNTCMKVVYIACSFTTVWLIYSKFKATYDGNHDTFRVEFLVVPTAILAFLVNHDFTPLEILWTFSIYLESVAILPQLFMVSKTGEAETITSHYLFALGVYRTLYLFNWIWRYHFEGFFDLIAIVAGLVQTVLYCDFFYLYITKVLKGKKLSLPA

[2] = molecular target: T2, KDELR-mCherry (HT1080 stable) (human) (UniProt P24390)
T2 sequence: T1 sequence

A Venus signal of Halo-KDELR-V5-VN with Halo-KDELR-myc-VC (split Venus), 30 min against 0 min with 50 μM TAEKDEL peptide [1] of 2 fold and a phosphorylation of STAT3 (Tyr705) in HT1080 cells stably overexpressing KDELR-mCherry, 50 μM TAEKDEL at 37 °C for 30 min, western blot [2] of 37% were found for TAEKDEL [TAEKDEL peptide] in this work.
